This passage reports IC50 results from article PMC2553845 (2008).

Where no end group is shown, it is not given here.

Common to all, as to test: ELISA
One experiment has as its target SCRIB PDZ domain 1 (human, UniProt Q14160 728-815).
The target in a further experiment is T1, SCRIB PDZ domain 3 (human, UniProt Q14160 1004-1093).
T1 chain: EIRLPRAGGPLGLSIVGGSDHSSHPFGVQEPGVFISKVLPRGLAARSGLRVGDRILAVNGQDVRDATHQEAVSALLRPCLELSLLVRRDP

The target of a further experiment is T2, SCRIB PDZ domain 2 (human, UniProt Q14160 862-950).
T2 chain: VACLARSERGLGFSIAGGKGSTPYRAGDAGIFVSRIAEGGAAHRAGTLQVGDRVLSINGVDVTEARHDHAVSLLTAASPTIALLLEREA

Sequence of SCRIB PDZ domain 1 (Q14160 728-815): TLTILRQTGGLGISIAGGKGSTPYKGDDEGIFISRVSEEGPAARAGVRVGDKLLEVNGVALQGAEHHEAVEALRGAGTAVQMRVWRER

B1: peptide 2, C terminus of the HTLV-1 Tax protein (peptide)
chain: KHFRETEV
modifications: not fully specified
With B1, the IC50 was determined as 3.4 µM in the experiment with SCRIB PDZ domain 1, 58 µM with SCRIB PDZ domain 3 and 5.2 µM with SCRIB PDZ domain 2.

B2: designed SCRIB PDZ-binding peptide Π-RSWFETWV (peptide 14) (peptide)
chain: RQIKIWFQNRRMKWKKRSWFETWV
modifications: not fully specified
Take B2: the IC50 was determined as 2.2 µM in the experiment with SCRIB PDZ domain 1, 3.9 µM in the experiment with SCRIB PDZ domain 3 and 4.7 µM with SCRIB PDZ domain 2.
